Assay results reported in US20170174769A1.
Where “and” joins values, the source holds several entries; their conditions need not be identical. Equal entries are not always repeated.

Legend:
[1] = molecular target: full-length human FGFR1c on HEK293/hFGFR1c/SRE-luc cells (human) (UniProt P11362); assay: FACS on stable HEK293 cells, secondary antibody alone
[2] = molecular target: full-length human KLB on HEK293/hKLB/SRE-luc cells (human) (UniProt Q86Z14); assay: as above
[3] = molecular target: human KLB and human FGFR1c co-expressed on HEK293/hKLB/hFGFR1c/SRE-luc cells (human) (UniProt Q86Z14); assay: as above
[4] = molecular target: cell-surface human FGFR1c alone (amino acids 1-731 of NP_075594) on HEK293/hFGFR1c/SRE-Luc cells of Example 19 (human) (UniProt P11362); assay: cell-based or functional assay
[5] = molecular target: full-length human FGFR1c on HEK293/hFGFR1c/SRE-luc cells (human) (UniProt P11362); assay: cell-based or functional assay
[6] = molecular target: full-length human FGFR1c on HEK293/hFGFR1c/SRE-luc cells (human) (UniProt P11362); assay: FACS on stable HEK293 cells
[7] = molecular target: full-length human KLB on HEK293/hKLB/SRE-luc cells (human) (UniProt Q86Z14); assay: FACS on stable HEK293 cells
[8] = molecular target: human KLB and human FGFR1c co-expressed on HEK293/hKLB/hFGFR1c/SRE-luc cells (human) (UniProt Q86Z14); assay: FACS on stable HEK293 cells
[9] = molecular target: full-length human FGFR1c on HEK293/hFGFR1c/SRE-luc cells (human) (UniProt P11362); assay: FACS on stable HEK293 cells, secondary antibody alone; row shifted one column to the left (c3 = 293/hFGFR1c)
[10] = molecular target: human KLB and human FGFR1c co-expressed on HEK293/hKLB/hFGFR1c/SRE-luc cells (human) (UniProt Q86Z14); assay: FACS on stable HEK293 cells, secondary antibody alone; row shifted one column to the left (c4 = 293/hFGFR1c/hKLB)
[11] = molecular target: mouse KLB and mouse FGFR1c co-expressed on HEK293/mKLB/mFGFR1c/SRE-Luc cells (mouse); assay: FACS on stable HEK293 cells, secondary antibody alone; row shifted one column to the left (c5 = 293/mFGFR1c/mKLB)

full-length human FGFR1c on HEK293/hFGFR1c/SRE-luc cells (human), sequence (P11362 other isoform, or with tags, fused parts or gaps limits assumed): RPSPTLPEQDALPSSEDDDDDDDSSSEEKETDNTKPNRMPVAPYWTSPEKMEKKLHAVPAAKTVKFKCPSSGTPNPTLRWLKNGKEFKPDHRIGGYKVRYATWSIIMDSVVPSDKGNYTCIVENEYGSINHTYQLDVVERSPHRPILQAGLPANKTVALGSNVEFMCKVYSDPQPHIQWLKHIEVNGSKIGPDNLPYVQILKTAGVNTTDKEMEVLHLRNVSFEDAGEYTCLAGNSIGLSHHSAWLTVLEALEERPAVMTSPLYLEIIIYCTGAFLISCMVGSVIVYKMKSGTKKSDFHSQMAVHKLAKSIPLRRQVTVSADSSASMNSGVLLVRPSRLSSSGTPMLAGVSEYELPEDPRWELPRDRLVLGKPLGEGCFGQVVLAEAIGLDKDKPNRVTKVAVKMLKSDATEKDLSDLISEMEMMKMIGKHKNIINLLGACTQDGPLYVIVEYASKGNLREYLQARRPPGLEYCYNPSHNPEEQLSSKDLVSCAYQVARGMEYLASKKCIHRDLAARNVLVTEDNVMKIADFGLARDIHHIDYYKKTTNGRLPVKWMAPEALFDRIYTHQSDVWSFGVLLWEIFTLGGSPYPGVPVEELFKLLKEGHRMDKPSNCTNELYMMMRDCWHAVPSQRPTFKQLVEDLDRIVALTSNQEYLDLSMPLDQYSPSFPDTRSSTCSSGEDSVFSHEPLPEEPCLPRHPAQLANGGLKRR
human KLB and human FGFR1c co-expressed on HEK293/hKLB/hFGFR1c/SRE-luc cells (human), sequence (Q86Z14 whole entry, chain 1 of 2, the tested form may be a part): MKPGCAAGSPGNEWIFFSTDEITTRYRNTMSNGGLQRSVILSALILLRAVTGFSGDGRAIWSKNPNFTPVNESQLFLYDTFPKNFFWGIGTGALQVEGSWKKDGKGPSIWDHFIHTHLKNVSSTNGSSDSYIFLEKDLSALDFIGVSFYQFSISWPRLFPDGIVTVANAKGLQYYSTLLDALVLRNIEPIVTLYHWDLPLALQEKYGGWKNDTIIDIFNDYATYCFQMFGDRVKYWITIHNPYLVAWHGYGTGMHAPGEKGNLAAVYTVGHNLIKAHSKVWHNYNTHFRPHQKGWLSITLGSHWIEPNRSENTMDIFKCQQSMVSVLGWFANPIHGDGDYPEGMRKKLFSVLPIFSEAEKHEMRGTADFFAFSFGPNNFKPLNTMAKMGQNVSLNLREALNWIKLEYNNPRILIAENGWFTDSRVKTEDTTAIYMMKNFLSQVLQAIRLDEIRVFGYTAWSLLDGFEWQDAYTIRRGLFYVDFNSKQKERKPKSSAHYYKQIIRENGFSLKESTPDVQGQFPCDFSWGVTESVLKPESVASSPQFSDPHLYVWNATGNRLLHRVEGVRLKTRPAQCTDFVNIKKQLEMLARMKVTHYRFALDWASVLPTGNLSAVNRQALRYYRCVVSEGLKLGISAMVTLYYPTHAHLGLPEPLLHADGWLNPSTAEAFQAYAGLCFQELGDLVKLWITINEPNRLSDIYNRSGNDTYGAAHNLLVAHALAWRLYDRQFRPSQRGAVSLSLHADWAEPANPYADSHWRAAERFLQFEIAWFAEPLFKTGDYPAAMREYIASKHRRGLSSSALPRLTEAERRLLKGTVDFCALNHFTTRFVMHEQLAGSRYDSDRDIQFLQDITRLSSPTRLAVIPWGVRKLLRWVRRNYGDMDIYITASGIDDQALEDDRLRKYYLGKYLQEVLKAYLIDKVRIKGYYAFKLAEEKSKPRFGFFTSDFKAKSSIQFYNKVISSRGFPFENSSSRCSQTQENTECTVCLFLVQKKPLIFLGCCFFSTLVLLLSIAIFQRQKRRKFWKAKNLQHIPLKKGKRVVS
human KLB and human FGFR1c co-expressed on HEK293/hKLB/hFGFR1c/SRE-luc cells (human), sequence (chain, as listed by the source limits assumed, chain 2 of 2): as the sequence (P11362 other isoform, or with tags, fused parts or gaps limits assumed) above
full-length human KLB on HEK293/hKLB/SRE-luc cells (human), sequence (Q86Z14 whole entry): as the sequence (Q86Z14 whole entry, chain 1 of 2, the tested form may be a part) above
cell-surface human FGFR1c alone (amino acids 1-731 of NP_075594) on HEK293/hFGFR1c/SRE-Luc cells of Example 19 (human), sequence (P11362 22-822): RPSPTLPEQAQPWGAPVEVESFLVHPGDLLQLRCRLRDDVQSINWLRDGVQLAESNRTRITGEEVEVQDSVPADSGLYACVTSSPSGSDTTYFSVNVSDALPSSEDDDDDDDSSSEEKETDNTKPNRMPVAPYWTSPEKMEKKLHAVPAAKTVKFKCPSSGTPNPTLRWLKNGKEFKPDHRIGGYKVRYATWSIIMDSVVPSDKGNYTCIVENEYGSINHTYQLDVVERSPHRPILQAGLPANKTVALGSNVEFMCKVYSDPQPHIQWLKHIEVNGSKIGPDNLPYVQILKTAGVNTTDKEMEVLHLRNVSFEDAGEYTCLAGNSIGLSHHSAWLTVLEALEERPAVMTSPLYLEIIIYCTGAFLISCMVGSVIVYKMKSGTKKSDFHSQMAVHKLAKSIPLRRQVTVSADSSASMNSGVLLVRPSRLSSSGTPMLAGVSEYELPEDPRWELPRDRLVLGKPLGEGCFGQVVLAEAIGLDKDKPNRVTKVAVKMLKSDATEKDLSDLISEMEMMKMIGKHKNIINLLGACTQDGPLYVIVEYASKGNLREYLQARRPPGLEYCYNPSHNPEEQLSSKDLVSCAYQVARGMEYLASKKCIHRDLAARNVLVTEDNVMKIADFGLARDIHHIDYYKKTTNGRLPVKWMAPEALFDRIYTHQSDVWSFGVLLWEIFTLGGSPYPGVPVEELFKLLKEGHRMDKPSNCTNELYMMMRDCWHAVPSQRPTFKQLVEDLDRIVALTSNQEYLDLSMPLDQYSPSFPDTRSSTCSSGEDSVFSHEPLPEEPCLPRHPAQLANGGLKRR

Substance | binding ratio to unstained cells [1] [fold] | binding ratio to unstained cells [2] [fold] | binding ratio to unstained cells [3] [fold] | binding ratio to unstained cells [6] [fold] | binding ratio to unstained cells [7] [fold] | binding ratio to unstained cells [8] [fold] | other results
human FGF2 (hFGF2; R&D Systems, #233-FB/CF) (from UniProt P09038 143-288) (ligand) | – | – | – | – | – | – | EC50, SRE-luc activation [4]: 1600 pM; EC50, SRE-luc activation by ligand [5]: 400 pM and 800 pM
Irrelevant IgG control 2 (antibody) | – | – | – | 2 | 2 | 2 | –
Anti-Human IgG Secondary Antibody | 1 | 2 | 1 | – | – | – | MFI Ratio to unstained cells [9]: 1 fold; MFI Ratio to unstained cells [10]: 1 fold; MFI Ratio to unstained cells [11]: 1 fold

More lines, main results first:

binding ratio to unstained cells [1] [fold] | binding ratio to unstained cells [2] [fold] | binding ratio to unstained cells [3] [fold] | binding ratio to unstained cells [6] [fold] | binding ratio to unstained cells [7] [fold] | binding ratio to unstained cells [8] [fold] | Substance | other results
1 | 1 | 1 | – | – | – | Anti-Mouse IgG Secondary Antibody | –
– | – | – | 1 | 1 | 2 | Irrelevant IgG control 1 (antibody) | –
